For one assay, the system named is CII-primed, bulk T cells. Description: Inhibition of antigen presentation to CII-primed bulk T cells (co-culture). The assay is classed as cell-based, DBA/1 mice. Particulars: analog co-cultured with CII 245-270 or native CII at various ratios; FIG. 2. As to the method:
T cell stimulation assays were performed in 96 well plates and the degree of stimulation was quantitated by measurements of γ-IFN production. Myers, L. K., K. Terato, J. M. Seyer, J. M. Stuart, and A. H. Kang, 1992, Characterization of a Tolerogenic T Cell Epitope of Type II Collagen and its Relevance to Collagen-Induced Arthritis. J. Immunol. 149:1439. The disclosure of this article is incorporated by reference. Spleens and lymph nodes from mice immunized with CII 14 to 21 days prior were individually minced into single cell suspensions in Hank's Balanced Salt Solution (BSS) and washed 3 times. […] Supernatants were collected from 72 to 120 hours later and either […] analyzed for γ-IFN production immediately or stored at −70° C. prior to analysis. Quantitative measurement of murine gamma interferon was done using a solid-phase enzyme-linked immunosorbent assay (Amgen Biologicals, Thousand Oaks, Calif.). […] The absorbance was measured at 405 nm with a spectrophotometer, and a standard curve was obtained by plotting the absorbance versus the corresponding concentration of the standards. Units of γ-interferon were calculated based on NIH standard number Gg02-901-533. […]

Assay [1] relates to collagen induced arthritis in neonatally tolerized mice. The assay is described as follows: Neonatal tolerance: peptide given at birth, CII challenge at eight weeks, arthritis observed. The assay is classed as in vivo. As to conditions: administered to neonatal mice prior to immunization with CII; 261, 263]. From the text:
To measure the incidence of arthritis in immunized mice, individuals examined and scored each of the forepaws and hind paws on a scale of 0-4 as described in Wooley, P. H., H. W. Luthra, J. M. Stuart and C. S. David. 1981. “Type 11 Collagen-induced Arthritis in Mice”. I. Major Histocompatibility Complex (I region) Linkage and Antibody Correlates. J. Exp. Med. 154:688. This article is incorporated herein by reference. There were two separate examiners, one of whom was unaware of the identity of the treatment groups. Each mouse was scored three times a week beginning three weeks post immunization and continuing through 8 weeks post immunization. The incidence of arthritis (number of animals with one or more arthritic limbs) was reported at 6 weeks post immunization, the time point at which the control group reached its peak of disease. The incidence of arthritis in various groups of mice was compared using Fisher's Exact Test. Student's T test was used to compare means of antibody responses to CII.
The foregoing data support the hypothesis that analog peptide CII 245-270[s260, 261, 263] competes for binding to I-A^q. […] Synthetic peptides were solubilized directly in phosphate buffered saline (PBS) at a concentration of 1 mg/ml. […]

Assay [2] deals with T1, I-A^q on the surface of antigen presenting cells (Mus musculus, UniProt P04227+P06342).
T1 construct: containing 4×10^5 syngenic spleen cells and 10^5 T-hybridoma cells; from tissue; host or cells: spleen cells syngeneic to DBA/1 mice (H-2q), used as antigen presenting cells
Description: Competitive antigen presentation assay: pulsed APC presented to CII 245-270 specific T-cell hybridomas, IL-2 titer. The assay is classed as cell-based, DBA/1 mice. As to the method:
Lymph node cells were obtained from DBA/1 mice immunized with α1(II)-CB11 emulsified with complete Freund's adjuvant and cultured in vitro with α1(II)-CB11 for five days, and in the presence of IL-2 for three days before fusion. Hybridoma cells reactive to CB11 [CII 245-270] and CII were cloned by limiting dilution to 0.3 cells/well. Antigen presentation experiments were performed in 96 well […] plates in a total volume of 0.3 ml containing 4×10^5 syngenic spleen cells and 10^5 T-hybridoma cells. For competitive inhibition assays, spleen cells were pulsed with various ratios of inhibitor to indicator peptide and washed several times prior to addition to the antigen presentation culture. Cell cultures were maintained at 37° C. in 5% humidified CO2 for 20 to 24 hours, after which seven 80 μl two-fold serial dilutions were made for determination of IL-2 titers. Four thousand HT-2 cells were added to each supernatant dilution, and after 16 to 20 hours HT-2 cell viability was evaluated by visual inspection. IL-2 titers were determined by the reciprocal of the highest two-fold serial dilution maintaining 90% viability of the HT-2 cells. Results are presented as units of IL-2 per ml of undiluted supernatant as described by Kapper et al. Kappler, J., J. White, D. Wegman, E. Mustain, and P. Marrack, 1982, Antigen Presentation by Ia^+B Cell Hybridomas to H-2 Restricted T Cell Hybridomas. Proc. Natl. Acad. Sci. USA 79:3604. The disclosure of this article is incorporated by reference.
The inability of some analog peptides to stimulate T cells likely occurs either because of disruption of peptide binding to the I-A^q molecule or the inability of the T cell receptor to recognize the peptide. In order to determine whether the analog peptides could bind to the class II molecule, competitive antigen presentation assays were performed. Antigen presenting cells (APC) were pulsed with various molar ratios of CII 245-270 and an analog peptide, and tested for their ability to stimulate CII 245-270 specific T cell hybridomas.

Entries after “also recorded” stand apart in the source; their conditions may differ.

“Pro - Thr - Gly - Pro - Leu - Gly - Pro - Lys - Gly - Gln - Thr - Gly - Glx - Leu - Gly - Ala - 4Hyp - Gly - Asn - Lys - Gly - Glx - Gln - Gly - Pro - Lys [CII 245-270 [s260, 261, 263], analog of CII 245-270 with alanine at 260, hydroxyproline at 261, asparagine at 263]”: the “T cell responses to CII 245-270 and CII” value with CII-primed, bulk T cells is “significantly decreased responses to both CII 245-270 and CII in a dose dependent manner”. The “Effectiveness as neonatal tolerogen, in words” value in assay [1] is given as “ineffective as a CII tolergen; also recorded: very poor tolerogen”. Further, the IL-2 is 160 U/ml in assay [2] (T-cell hybrid 2qCII92.33, molar ratio competitor:CII 245-270 1.6:1); 80 U/ml in assay [2] (T-cell hybrid 2qCII92.33, molar ratio competitor:CII 245-270 3.2:1); 20 U/ml in assay [2] (T-cell hybrid 2qCII92.33, molar ratio competitor:CII 245-270 6.5:1); “— (A “—” indicates less than 20 U/ml of IL-2 detected)” in assay [2] (T-cell hybrid 2qCII92.33, molar ratio competitor:CII 245-270 13:1); 640 U/ml in assay [2] (T-cell hybrid qCII85.33, molar ratio competitor:CII 245-270 1.6:1); 320 U/ml in assay [2] (T-cell hybrid qCII85.33, molar ratio competitor:CII 245-270 3.2:1). Also, the IL-2 in assay [2] (T-cell hybrid qCII85.33, molar ratio competitor:CII 245-270 6.5:1) is 40 U/ml; in assay [2] (T-cell hybrid qCII85.33, molar ratio competitor:CII 245-270 13:1), “—* (A “—” indicates less than 20 U/ml of IL-2 detected)”; in assay [2] (T-cell hybrid qCII98.10, molar ratio competitor:CII 245-270 1.6:1) it was 160 U/ml; in assay [2] (T-cell hybrid qCII98.10, molar ratio competitor:CII 245-270 3.2:1), 80 U/ml; in assay [2] (T-cell hybrid qCII98.10, molar ratio competitor:CII 245-270 6.5:1), 40 U/ml; in assay [2] (T-cell hybrid qCII98.10, molar ratio competitor:CII 245-270 13:1), “— (A “—” indicates less than 20 U/ml of IL-2 detected)”. For the same substance, the “Ability of competitively pulsed APC to stimulate the T-cell hybridomas” value in assay [2] (analog:CII 245-270 molar ratios of 6:1 or greater) is “greatly reduced”. The “Binding to I-A^q / competition for presentation of the wild type peptide to T-cell hybridomas” value in assay [2] (conclusion from Table II) was “capable of binding to I-A^q”.

The values are drawn from patent publication US20020037844A1, “SYNTHETIC PEPTIDE FOR TREATMENT OF AUTOIMMUNE ARTHRITIS” (priority 1993, published 2002).
